These results are taken from patent EP1694709B1 (Fraunhofer-Gesellschaft zur Förderung der angewandten …, dated 2010).

Assay [1] concerns the target CD64 (human) (UniProt P12314).
Assay [2] deals with CD64 (human) (UniProt P12314). Kind of assay: cell-based or functional assay.
Another assay deals with CD64 (human, UniProt P12314 16-374). Nature of the assay: cell-based or functional assay.

moAb m22 (antibody): the % inhibition of m22(scFv)-ETA' binding in the assay with CD64 (human) [1] amounted to 70%.

In the assay with CD64 (human) [2], m22(scFv)2-ETA' yielded an IC50 of growth inhibition (XTT-based colorimetric assay) on HL-60 cells of 0.0117 µg/mL and an IC50 of growth inhibition (XTT-based colorimetric assay) on U937 cells of 0.0135 µg/mL.

B1: m22(scFv)-ETA' (scFv)
chain 1: QVQLVESGGGVVQPGRSLRLSCSSSGFIFSDNYMYWVRQAPGKGLEWVATISDGGSYTYYPDSVKGRFTISRDNSKNTLFLQMDSLRPEDTGVYFCARGYYRYEGAMDYWGQGTPVTVSS
chain 2: DIQLTQSPSSLSASVGDRVTITCKSSQSVLYSSNQKNYLAWYQQKPGKAPKLLIYWASTRESGVPSRFSGSGSGTDFTFTISSLQPEDIATYYCHQYLSSWTFGQGTKLEIK
As for B1, in the assay with CD64, the “IC50 of growth inhibition (XTT-based colorimetric assay) on HL-60 cells” value stood at 0.0116 µg/mL and the “IC50 of growth inhibition (XTT-based colorimetric assay) on U937 cells” value was 0.0129 µg/mL.
